Assay results from paper PMC3834829, “A signature motif mediating selective interactions of BCL11A with the NR2E/F subfamily of orphan nuclear receptors” (Nucleic Acids Research, 2013).

B1: LexA-BCL11A-(310–325) [not stated] / AAD-COUP-TFI-LBD-(151–467) [not stated] (parent complex)
chain 1: PPAMDFSRRLRELAGN
chain 2: MRREAVQRGRMPPTQPNPGQYALTNGDPLNGHCYLSGYISLLLRAEPYPTSRYGSQCMQPNNIMGIENICELAARLLFSAVEWARNIPFFPDLQITDQVSLLRLTWSELFVLNAAQCSMPLHVAPLLAAAGLHASPMSADRVVAFMDHIRIFQEQVEKLKALHVDSAEYSCLKAIVLFTSDACGLSDAAHIESLQEKSQCALEEYVRSQYPNQPSRFGKLLLRLPSLRTVSSSVIEQLFFVRLVGKTPIETLIRDMLLSGSSFNWPYMSIQCS
B2: AAD-COUP-TFII-LBD-(144–414) [not stated] / LexA-BCL11A-(651–670) [not stated] (parent complex)
chain 1: MRREAVQRGRMPPTQPTHGQFALTNGDPLNCHSYLSGYISLLLRAEPYPTSRFGSQCMQPNNIMGIENICELAARMLFSAVEWARNIPFFPDLQITDQVALLRLTWSELFVLNAAQCSMPLHVAPLLAAAGLHASPMSADRVVAFMDHIRIFQEQVEKLKALHVDSAEYSCLKAIVLFTSDACGLSDVAHVESLQEKSQCALEEYVRSQYPNQPTRFGKLLLRLPSLRTVSSSVIEQLFFVRLVGKTPIETLIRDMLLSGSSFNWPYMAIQ
chain 2: NTENVYSQWLAGYAASRQLK
B3: LexA-NSD1-(790–818) [not stated] / AAD-ERα-LBD-(282–595) [not stated] (parent complex)
chain 1: SSQNHIPIEPDYKFSTLLMMLKDMHDSKT
chain 2: SAGDMRAANLWPSPLMIKRSKKNSLALSLTADQMVSALLDAEPPILYSEYDPTRPFSEASMMGLLTNLADRELVHMINWAKRVPGFVDLTLHDQVHLLECAWLEILMIGLVWRSMEHPGKLLFAPNLLLDRNQGKCVEGMVEIFDMLLATSSRFRMMNLQGEEFVCLKSIILLNSGVYTFLSSTLKSLEEKDHIHRVLDKITDTLIHLMAKAGLTLQQQHQRLAQLLLILSHIRHMSNKGMEHLYSMKCKNVVPLYDLLLEMLDAHRLHAPTSRGGASVEETDQSHLATAGSTSSHSLQKYYITGEAEGFPATV
B4: LexA-BCL11A-(310–325) [not stated] / AAD-PNR-LBD-(131–410) [not stated] (parent complex)
chain 1: PPAMDFSRRLRELAGN
chain 2: HLDSMESNTESRPESLVAPPAPAGRSPRGPTPMSAARALGHHFMASLITAETCAKLEPEDADENIDVTSNDPEFPSSPYSSSSPCGLDSIHETSARLLFMAVKWAKNLPVFSSLPFRDQVILLEEAWSELFLLGAIQWSLPLDSCPLLAPPEASAAGGAQGRLTLASMETRVLQETISRFRALAVDPTEFACMKALVLFKPETRGLKDPEHVEALQDQSQVMLSQHSKAHHPSQPVRFGKLLLLLPSLRFITAERIELLFFRKTIGNTPMEKLLCDMFKN
B5: LexA-BCL11A-(310–325) [not stated] / AAD-EAR2-LBD-(121–399) [not stated] (parent complex)
chain 1: PPAMDFSRRLRELAGN
chain 2: MRKEAVQRGRIPHSLPGAVAASSGSPPGSALAAVASGGDLFPGQPVSELIAQLLRAEPYPAAAGRFGAGGGAAGAVLGIDNVCELAARLLFSTVEWARHAPFFPELPVADQVALLRLSWSELFVLNAAQAALPLHTAPLLAAAGLHAAPMAAERAVAFMDQVRAFQEQVDKLGRLQVDSAEYGCLKAIALFTPDACGLSDPAHVESLQEKAQVALTEYVRAQYPSQPQRFGRLLLRLPALRAVPASLISQLFFMRLVGKTPIETLIRDMLLSGSTFNWP

Variants of: B1
Experiment: yeast two-hybrid; read off a plot

response [nmol/mg/min] | Variant
~900 | chain 1 PPAMDFSARLRELAGN [chain 1 R8A]
~100 | chain 1 PPAMDFARRLRELAGN [chain 1 S7A]

Variants of: B2
Experiment: yeast two-hybrid; read off a plot

Variant | response [nmol/mg/min]
chain 1 MRREAVQRGRMPPTQPTHGQFALTNGDPLNCHSYLSGYISLLLRAEPYPTSRFGSQCMQPNNIMGIENICELAARMLFSAVEWAANIPFFPDLQITDQVALLRLTWSELFVLNAAQCSMPLHVAPLLAAAGLHASPMSADRVVAFMDHIRIFQEQVEKLKALHVDSAEYSCLKAIVLFTSDACGLSDVAHVESLQEKSQCALEEYVRSQYPNQPTRFGKLLLRLPSLRTVSSSVIEQLFFVRLVGKTPIETLIRDMLLSGSSFNWPYMAIQ [chain 1 R85A] | ~1200
chain 1 MRREAVQRGRMPPTQPTHGQFALTNGDPLNCHSYLSGYISLLLRAEPYPTSRFGSQCMQPNNIMGIENICELAARMLASAVEWARNIPFFPDLQITDQVALLRLTWSELFVLNAAQCSMPLHVAPLLAAAGLHASPMSADRVVAFMDHIRIFQEQVEKLKALHVDSAEYSCLKAIVLFTSDACGLSDVAHVESLQEKSQCALEEYVRSQYPNQPTRFGKLLLRLPSLRTVSSSVIEQLFFVRLVGKTPIETLIRDMLLSGSSFNWPYMAIQ [chain 1 F78A] | ~40
chain 1 MRREAVQRGRMPPTQPTHGQFALTNGDPLNCHSYLSGYISLLLRAEPYPTSRFGSQCMQPNNIMGIENICELAARMLFSAVEWARNIPFFPDLQITDQVALLALTWSELFVLNAAQCSMPLHVAPLLAAAGLHASPMSADRVVAFMDHIRIFQEQVEKLKALHVDSAEYSCLKAIVLFTSDACGLSDVAHVESLQEKSQCALEEYVRSQYPNQPTRFGKLLLRLPSLRTVSSSVIEQLFFVRLVGKTPIETLIRDMLLSGSSFNWPYMAIQ [chain 1 R103A] | ~1900

Continued, values first:

response [nmol/mg/min] | Variant
~20 | chain 1 MRREAVQRGRMPPTQPTHGQFALTNGDPLNCHSYLSGYISLLLRAEPYPTSRFGSQCMQPNNIMGIENICELAARMLFSAAEWARNIPFFPDLQITDQVALLRLTWSELFVLNAAQCSMPLHVAPLLAAAGLHASPMSADRVVAFMDHIRIFQEQVEKLKALHVDSAEYSCLKAIVLFTSDACGLSDVAHVESLQEKSQCALEEYVRSQYPNQPTRFGKLLLRLPSLRTVSSSVIEQLFFVRLVGKTPIETLIRDMLLSGSSFNWPYMAIQ [chain 1 V81A]
~2900 | chain 1 MRREAVQRGRMPPTQPTHGQFALTNGDPLNCHSYLSGYISLLLRAEPYPTSRFGSQCMQPNNIMGIENICELAARMLFSAVEWARNIPFFPDLQATDQVALLRLTWSELFVLNAAQCSMPLHVAPLLAAAGLHASPMSADRVVAFMDHIRIFQEQVEKLKALHVDSAEYSCLKAIVLFTSDACGLSDVAHVESLQEKSQCALEEYVRSQYPNQPTRFGKLLLRLPSLRTVSSSVIEQLFFVRLVGKTPIETLIRDMLLSGSSFNWPYMAIQ [chain 1 I95A]
~2700 | chain 1 MRREAVQRGRMPPTQPTHGQFALTNGDPLNCHSYLSGYISLLLRAEPYPTSRFGSQCMQPNNIMGIENICELAARMLFSAVEWARNIPFFPDLQITDQAALLRLTWSELFVLNAAQCSMPLHVAPLLAAAGLHASPMSADRVVAFMDHIRIFQEQVEKLKALHVDSAEYSCLKAIVLFTSDACGLSDVAHVESLQEKSQCALEEYVRSQYPNQPTRFGKLLLRLPSLRTVSSSVIEQLFFVRLVGKTPIETLIRDMLLSGSSFNWPYMAIQ [chain 1 V99A]

Variants of: B3
Experiment: yeast two-hybrid; + 1µM E2; read off a plot

Variant | response [nmol/mg/min]
chain 1 SSQNHIPIEPDYKFSTLLMMLKAMHDSKT [chain 1 D23A] | ~1700
chain 1 SSQNHIPIEPDYKFSTLLMMLADMHDSKT [chain 1 K22A] | ~2500
chain 1 SSQNHIPIEPDYKFSTLAMMLKDMHDSKT [chain 1 L18A] | ~1800
chain 1 SSQNHIPIEPDYKFSTLLAMLKDMHDSKT [chain 1 M19A] | ~2700
chain 1 SSQNHIPIEPDYKFSTLLMALKDMHDSKT [chain 1 M20A] | ~0
chain 1 SSQNHIPIEPDYKFSTALMMLKDMHDSKT [chain 1 L17A] | ~0

Next, values leading:

response [nmol/mg/min] | Variant
~0 | chain 1 SSQNHIPIEPDYKFSTLLMMAKDMHDSKT [chain 1 L21A]
~2400 | chain 1 SSQNHIPIEPDYKASTLLMMLKDMHDSKT [chain 1 F14A]

Variants of: B4
Experiment: yeast two-hybrid; read off a plot

Variant | response [nmol/mg/min]
chain 1 S7A | ~2500
chain 1 R8A | ~0
chain 1 L13A | ~0

Other lines, results leading:

response [nmol/mg/min] | Variant
~0 | chain 1 L10A
~0 | chain 1 R11A
~0 | chain 1 F6A

Variants of: B5
Experiment: yeast two-hybrid; read off a plot

Variant | response [nmol/mg/min]
chain 1 PPAMDFSRRLAELAGN [chain 1 R11A] | ~1300
chain 1 PPAMDFARRLRELAGN [chain 1 S7A] | ~160
chain 1 PPAMDFSARLRELAGN [chain 1 R8A] | ~1000

Results, then the variant that gave them:

response [nmol/mg/min] | Variant
~0 | chain 1 PPAMDFSRRLREAAGN [chain 1 L13A]
~0 | chain 1 PPAMDFSRRARELAGN [chain 1 L10A]
